# Assay results taken from the DeepSol protein solubility set.
# Assay: soluble on expression in E. coli; label from the status in PepcDB or PDB records
row,Sequence,soluble on expression in E. coli
1,MNTQILGLHHVTAMTSSAEKIYHFFTDILGLRLIKKTVNQDDIETYHLFFADDAGSPGTDMTFFDFPGLPKGTKGTNTISRTSFRVKDDATLDYWVSRFNEYAIDHGEIQERFGKKYLEFEDFDNQRYQLISDEKNQCVAAGTPWKKSNVPSEHALIGLGPAFVTVENYEHLQLVLTEVLGFKLIDAEGSFHLFEVGEGGNGASIIVEHREDLPAAQEGYGNVHHLALRVADEEALRFWIEKINRLEFPNSGFVERFYFKSEYFLAATHVLFELATDGPGFLEDETYEHAGEKLSLPPFLEPKRAGIEEFVRPFDTSDANVQRN,not soluble
2,ESSFTYTLDEKVAELVEFLLLKYEAEEPVTEAEMLMIVIKYKDYFPVILKRAREFMELLFGLALIEVGPDHFCVFANTVGLTDEGSDDEGMPENSLLIIILSVIFIKGNCASEEVIWEVLNAVGVYAGREHFVYGEPRELLTKVWVQGHYLEYREVPHSSPPYYEFLWGPRAHSESIKKKVLEFLAKLNNTVPSSFPSWYKDALKDVEERVQATIDTADD,soluble
3,MISAHCNLRLLCSSDSSASASQVAGTTEVVENLVTNDNSPNIPEAIDRLFSDIANINRESMAEIADIQIEEMAVNLWNWALTIGGGWLVNEEQKIRLHYVACKLLSMCEASFASEQSIQRLIMMNMRIGKEWLDAGNFLIADECFQAAVASLEQLYVKLIQRSSPEADLTMEKITVESDHFRVLSYQAESAVAQGDFQRASMCVLQCKDMLMRLPQMTSSLHHLCYNFGVETQKNNKYEESSFWLSQSYDIGKMDKKSTGPEMLAKVLRLLATNYLDWDDTKYYDKALNAVNLANKEHLSSPGLFLKMKILLKGETSNEELLEAVMEILHLDMPLDFCLNIAKLLMDHERESVGFHFLTIIHERFKSSENIGKVLILHTDMLLQRKEELLAKEKIEEIFLAHQTGRQLTAESMNWLHNILWRQAASSFEVQNYTDALQWYYYSLRFYSTDEMDLDFTKLQRNMACCYLNLQQLDKAKEAVAEAERHDPRNVFTQFYIFKIAVIEGNSERALQAIITLENILTDEESEDNDLVAERGSPTMLLSLAAQFALENGQQIVAEKALEYLAQHSEDQEQVLTAVKCLLRFLLPKIAEMPESEDKKKEMDRLLTCLNRAFVKLSQPFGEEALSLESRANEAQWFRKTAWNLAVQCDKDPVMMREFFILSYKMSQFCPSDQVILIARKTCLLMAVAVDLEQGRKASTAFEQTMFLSRALEEIQTCNDIHNFLKQTGTFSNDSCEKLLLLYEFEVRAKLNDPLLESFLESVWELPHLETKTFETIAIIAMEKPAHYPLIALKALKKALLLYKKEEPIDISQYSKCMHNLVNLSVPDGASNVELCPLEEVWGYFEDALSHISRTKDYPEMEILWLMVKSWNTGVLMFSRSKYASAEKWCGLALRFLNHLTSFKESYETQMNMLYSQLVEALSNNKGPVFHEHGYWSKSD,not soluble
4,MSELSQLSPQPLWDIFAKICSIPHPSYHEEQLAEYIVGWAKEKGFHVERDQVGNILIRQPATAGMENRKPVVLQAHLDMVPQKNNDTVHDFTKDPIQPYIDGEWVKARGTTLGADNGIGMASALAVLADENVVHGPLEVLLTMTEEAGMDGAFGLQSNWLQADILINTDSEEEGEIYMGCAGGIDFTSNLHLDREAVPAGFETFKLTLKGLKGGHSGGEIHVGLGNANKLLVRFLAGHAEELDLRLIDFNGGTLRNAIPREAFATIAVAADKVDALKSLVNTYQEILKNELAEKEKNLALLLDSVANDKAALIAKSRDTFIRLLNATPNGVIRNSDVAKGVVETSLNVGVVTMTDNNVEIHCLIRSLIDSGKDYVVSMLDSLGKLAGAKTEAKGAYPGWQPDANSPVMHLVRETYQRLFNKTPNIQIIHAGLECGLFKKPYPEMDMVSIGPTITGPHSPDEQVHIESVGHYWTLLTELLKEIPAKLEHHHHHH,soluble
5,MHFTPALKPGKLLKRYKRFLADVQLEDGSEITVHCPNTGSMRNCLFPGETLWFSTSSNTKRKYAHTWELMTTPTGALIGIHSGNANALVEEALNKGIITELTGYDSLRREVKYGDENSRIDILLECAQKTACYIEVKSCTLQENGQGYFPDAVSLRGQKHLRELMHMASLGHRAVLLFVVQHTDIMSVAPAAHIDPEYANLLKKSVLSGVEVLAYRCEISPSEIHLAQSCPVRV,soluble
6,MTEYNIGAKIKKLRLAKKLTLQAVARETGFSPALISQIENNNVSPPIATLSKIAKFFDVKISLFFSEDEEEYRYEVVRRGERKVIPRVISRAGTSQGYSYESLSFRKQNKKMEPFLLTVTEKAAEENTYNHDGEEFLFVMKGTAELLLEDERVILEEGDCVYFDSSLKHRLLSRDGSEVQVLAVVTR,not soluble
7,MGSDKIHHHHHHAVSAEEAKELGHKLTEFGAEKAGNADGSIPPYTGGVKDLAIPADFKPGSGHYPDPFKDEKPLVSITKANEAQYAEFLMPGTKALLERLPGFRIDVYKTHRTMAYPDWVLKNTVGCARTAKLVGSVTGDGVEGAFACIPFPIPKNGYEVMWNQNLRYQGVRTDFRFRTILIDESGHKTLMGDNETQFIYQYYDRNGSKLPDNFFRTGFTRFYGPPSEVGMMTLAKYSINDGTDDDTTWIYMPGQRRVRVAPEYKYDTPMAAIGGTLLFDEVGGFQGRMDRFDFKLVGKKEMFVPYNNYRAYNSSDLVGDKYANPDDVRWEKHRVWVVEATLKPGERNIYSHRTYYIDEDTWLIVGYEAYDQSNALYRAGYTLDIVPYDKPRVGQPNAIMYDLTKGNYSVTADQGTPSQHMIPFDDLPNMGNYNTQALLNAGVR,not soluble
8,MELKARAVGVEIIPKGKIIYYSVPNGDEYERGDLVLVLGDFGLEVGKVLIPPREVVIDEVGYELKAVIRKLTDEDLEQYRKNVEDALKAFQICKQKIKEHGLPMKLLYAKYTFDRTRLIFFFSAEGRVDFRELVRDLAKIFKTRIELRQVGVRDEMKFFGGLGLCGLPTCCSTFLREFTSVTLKHAKKQQMMINPAKISGPCRRLLCCLTYEYDFYEKELEGIPDEGSTITYEGKRYKVVNVNVFLRTVTLFSEQEGEMIKLPFDYFRKGE,soluble
9,MGNSCQNGTYGNNYQNSNRFQNDRFASRYVDGNDTEDCYSGSSRASLAGALRQGLNLKSPVLGYKTPNVRELYTLGRELGQGQFGKTYLCTEISTGCQYACKTILKSNLRCVSDIEDVRREIQIMHHLSGQKNIVTIKDTYEDEQAVHIVMELCAGGELFSKIQKRGHYSERKAAELIKIIVGIIETCHSHGVMHRDLKPENFLLLDADDEFSVKAIDFGLSVFFRPGQVFREVVGSPYYIAPEVLEKRYGPEADIWTAGVILYVLLTGVPPFWADTQSGIYEKVLDGRIDFKSNRWPRISDSAKDLIKKMLCPYPSERLKAHEVLKHPWICDNGVATNRALDPSVLPRLKQFSAMNRLKKLSLQIIAERLSEEEIVGLREMFKAMDTKNRSVVTFGELKGLKRYSSVFKDTEINDLMEAADDTTSTINWEEFIAAAVSLNKIEREKHLMAAFTYFDKDGSGFITVDKLQKACMERNMEDTFLEEMILEVDQNNDGQIDYAEFVTMMQSNNFGLGWQTVESSLNVALREAPQVY,not soluble
10,MGSDKIHHHHHHMKIYVDGREVIINDNERNLLEALKNVGIEIPNLCYLSEASIYGACRMCLVEINGQITTSCTLKPYEGMKVKTNTPEIYEMRRNILELILATHNRDCTTCDRNGSCKLQKYAEDFGIRKIRFEALKKEHVRDESAPVVRDTSKCILCGDCVRVCEEIQGVGVIEFAKRGFESVVTTAFDTPLIETECVLCGQCVAYCPTGALSIRNDIDKLIEALESDKIVIGMIAPAVRAAIQEEFGIDEDVAMAEKLVSFLKTIGFDKVFDVSFGADLVAYEEAHEFYERLKKGERLPQFTSCCPAWVKHAEHTYPQYLQNLSSVKSPQQALGTVIKKIYARKLGVPEEKIFLVSFMPCTAKKFEAEREEHEGIVDIVLTTRELAQLIKMSRIDINRVEPQPFDRPYGVSSQAGLGFGKAGGVFSCVLSVLNEEIGIEKVDVKSPEDGIRVAEVTLKDGTSFKGAVIYGLGKVKKFLEERKDVEIIEVMACNYGCVGGGGQPYPNDSRIREHRAKVLRDTMGIKSLLTPVENLFLMKLYEEDLKDEHTRHEILHTTYRPRRRYPEKDVEILPVPNGEKRTVKVCLGTSCYTKGSYEILKKLVDYVKENDMEGKIEVLGTFCVENCGASPNVIVDDKIIGGATFEKVLEELSKNG,not soluble
11,MGSDKIHHHHHHMNMAHDEQRWLSPRLQKAAALCNQAPAASESPLWLGIDLGTCDVVSMVVDRDGQPVAVCLDWADVVRDGIVWDFFGAVTLVRRHLATLEQQLGCRFTHAATSFPPGTDPRISINVLESAGLEISHVLDEPTAVADLLQLDNAGVVDIGGGTTGIAIVKQGRVTYSADEATGGHHISLTLAGNRGIGLEEAEQYKRSHAGEIWPVVKPVYEKMAEIVARHIAGQGIVDLWLAGGACMQPGVHELFRQRFPALPVHLPQHSLFMTPLAIANSGREKAEGMYAS,not soluble
12,MSLRSKLFLILTLHRSGSSATAGVLYHLGVHMGQHLLKENESNPKGHFENEEFVAVNDRILHTIGGSWKKPPSPELIKQLKIPRRQVETFLLQHAKPAWGIKDPRMLLTFDLWKGPMERVADITYIIVHRPIKESIASLVRRNDMTELEAQQILLPYLGNKQRIREQLVEEGADIIDVHFSDLLQHPDELVAAVNQRLGRAPKKRLDDVRLFLDHSLKHEGHHHHHH,soluble
13,AGHRGQCVGRHREVVAIDNSKATNPHAADSALAGFSSVVWVAGGQLKGAEIDELIVRHAGRIKAVALLGVDRDVIEDSVRTHIPGIPVLSVSETDPRRAMDEAVAWSVSQAEAGDAIVLAPAAASLDMYTGMGQRGDMFATAI,not soluble
14,MDALVEDDICILNHEKAHKRDTVTPVSIYSGDESVASHFALVTAYEDIKKRLKDSEKENSLLKKRIRFLEEKLIARFEEETSSVGREQVNKAYHAYREVCIDRDNLKSKLDKMNKDNSESLKVLNEQLQSKEVELLQLRTEVETQQVMRNLNPPSSNWEVEKLSCDLKIHGLEQELELMRKECSDLKIELQKAKQTDPYQEDNLKSRDLQKLSISSDNMQHAYWELKREMSNLHLVTQVQAELLRKLKTSTAIKKGKSLFTGNH,soluble
15,LFTESAKAVLAIAQEEAKYFRHQSVGSEHLLLALVLEPNGIAGKTLRQLNTDTEDIREEIEHLSGYGTMQSPMGNNNLYLPYSPRAKQIFAYAGDEAKRLGAQKIGTEHLLLGLLRDEEILASRILVNLGLSLSKMRQLLLKKMG,not soluble
16,VKSKAKKTVDKHSDEYKIRRERNNIAVRKSRDKAKMRNLETQHKVLELTAENERLQKKVEQLSRELSTLRNLFKQLPEPLLASSGHC,soluble
17,MAHHHHHHMPYQHIKVPEGGDKITVNKDFSLNVSDQPIIPYIEGDGTGFDITPVMIKVVDAAVEKAYGGKKKIHWMEIYAGEKATKVYGPDVWLPEETLQVLKEYVVSIKGPLTTPVGGGIRSLNVALRQELDLYVCLRPIQYFKGVPSPVREPEKTNMVIFRENSEDIYAGIEWAAESEQAKKVIKFLQEEMGVKKIRFPQTSGIGIKPVSKEGTERLVRKAIQYAIDNDRKSVTLVHKGNIMKFTEGAFRDAGYALAQKEFGAELIDGGPWMKFKNPKTGNEIVVKDSIADAFLQQILLRPAEYDVIATLNLNGDYISDALAAQVGGIGIAPGANLSDSVAMFEATHGTAPKYAGKDYVNPGSEILSAEMMLRHLGWTEAADVIISAMEKSIKQKRVTYDFARLMEGATQVSCSGFGQVLIENME,soluble
18,MDIFMTCSICGFTHNCICAHQPNLSSNIEFALLYHENERHKLTNTGKLLLNSLSNTTEYTWQRKEPPQALISKINQADTETWLLFPSKEPVLSSDFHHRHDPSKKQLFVLLDATWQEAKKMVNKSPWLKALPCLEIQTDEASRYHLRRNQSEGNLCTCEAGIEVLEMVKEPENAQALSCYYDQFLTVFQAERSGHKFTSLEHHHHHH,soluble
